One block for each binder: values may come before it.
Assays:
human Dll1 [1] = target: T1, human Dll1 (human, UniProt O00548 18-723); test: FACS, 15 µg/ml, 293T cells with human Dll1 vs mock
T1 construct: whole, on cells
T1 sequence (looked up): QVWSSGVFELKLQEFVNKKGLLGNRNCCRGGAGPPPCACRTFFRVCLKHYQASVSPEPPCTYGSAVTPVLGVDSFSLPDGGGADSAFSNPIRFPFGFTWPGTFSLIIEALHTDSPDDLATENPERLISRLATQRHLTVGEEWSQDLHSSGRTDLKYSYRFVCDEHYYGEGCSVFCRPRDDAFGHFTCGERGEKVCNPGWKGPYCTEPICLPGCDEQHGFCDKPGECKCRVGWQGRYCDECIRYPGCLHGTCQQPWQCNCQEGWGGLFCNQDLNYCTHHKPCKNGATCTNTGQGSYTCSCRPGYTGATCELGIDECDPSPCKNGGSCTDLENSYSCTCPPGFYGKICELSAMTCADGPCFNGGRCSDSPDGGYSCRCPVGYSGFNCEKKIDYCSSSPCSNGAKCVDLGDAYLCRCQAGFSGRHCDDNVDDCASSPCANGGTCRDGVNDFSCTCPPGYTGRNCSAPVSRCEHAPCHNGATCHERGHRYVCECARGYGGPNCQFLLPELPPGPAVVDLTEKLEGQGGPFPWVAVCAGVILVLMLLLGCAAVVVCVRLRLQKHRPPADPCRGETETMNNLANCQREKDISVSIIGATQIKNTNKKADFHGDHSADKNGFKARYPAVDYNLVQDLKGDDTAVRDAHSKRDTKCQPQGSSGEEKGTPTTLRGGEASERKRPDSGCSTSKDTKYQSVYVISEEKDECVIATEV
How it was run: (§1)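 Flow cytometry; 1 h antibody staining at 4 °C in PBS/2% FCS. Value = geometric mean fluorescence shift over mock-transfected cells.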

[2] = target: T2, human soluble DLL4 (R&D systems catalog #1056-D4-050) (human, UniProt Q9NR61 27-524); test: Biacore T100, antibody immobilised, soluble human DLL4 as analyte
T2 construct: Catalog number as printed; perhaps the same product as #1506-D4; also called antigen DLL4
T2 sequence (Q9NR61 27-524 limits assumed): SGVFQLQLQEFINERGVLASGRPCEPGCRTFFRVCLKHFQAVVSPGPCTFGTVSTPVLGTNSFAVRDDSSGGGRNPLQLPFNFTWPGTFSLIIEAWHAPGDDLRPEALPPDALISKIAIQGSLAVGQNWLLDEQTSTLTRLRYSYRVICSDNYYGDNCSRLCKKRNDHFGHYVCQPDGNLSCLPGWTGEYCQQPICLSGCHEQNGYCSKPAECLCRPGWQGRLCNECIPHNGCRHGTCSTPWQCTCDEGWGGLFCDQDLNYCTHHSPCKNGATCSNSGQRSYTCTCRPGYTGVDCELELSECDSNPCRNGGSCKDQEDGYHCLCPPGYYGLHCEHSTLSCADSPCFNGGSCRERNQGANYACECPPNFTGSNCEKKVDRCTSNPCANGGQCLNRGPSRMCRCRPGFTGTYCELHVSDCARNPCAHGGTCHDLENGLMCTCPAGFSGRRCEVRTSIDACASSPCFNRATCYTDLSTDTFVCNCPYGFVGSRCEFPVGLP
How it was run: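 Anti-DLL4 antibodies amine-coupled to CM5 chip (<200 RU). Soluble DLL4 injected from 32-64 nM in 3-fold dilutions, in triplicate, in HBS-P with 0.1 mg/ml BSA at 23° C. ka, kd and KD from a global 1:1 fit.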

full length human DLL4 = target: T3, full length human DLL4 (human, UniProt Q9NR61 27-685); test: FACS titration, HEK293 cells with human DLL4
T3 construct: whole, on cells; also called native DLL4 expressed in HEK293 cells
T3 sequence (Q9NR61 27-685): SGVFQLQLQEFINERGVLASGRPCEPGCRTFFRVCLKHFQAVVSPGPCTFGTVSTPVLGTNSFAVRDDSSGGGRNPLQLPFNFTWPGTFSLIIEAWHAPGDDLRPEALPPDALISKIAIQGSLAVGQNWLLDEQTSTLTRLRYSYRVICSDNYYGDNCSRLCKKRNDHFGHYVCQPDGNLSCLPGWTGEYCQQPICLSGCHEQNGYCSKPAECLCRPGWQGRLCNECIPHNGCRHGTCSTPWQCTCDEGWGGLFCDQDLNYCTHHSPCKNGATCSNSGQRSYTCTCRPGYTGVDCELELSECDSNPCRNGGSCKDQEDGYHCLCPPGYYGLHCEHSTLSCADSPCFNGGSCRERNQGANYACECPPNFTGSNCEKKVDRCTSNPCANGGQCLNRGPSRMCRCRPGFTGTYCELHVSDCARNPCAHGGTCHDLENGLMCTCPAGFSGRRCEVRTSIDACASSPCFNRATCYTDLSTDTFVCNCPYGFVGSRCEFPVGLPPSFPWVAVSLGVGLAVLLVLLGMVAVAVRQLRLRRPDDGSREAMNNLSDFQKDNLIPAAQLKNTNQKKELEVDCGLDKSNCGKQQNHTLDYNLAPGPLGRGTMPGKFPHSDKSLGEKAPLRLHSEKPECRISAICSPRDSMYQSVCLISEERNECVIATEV
How it was run: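 Antibody titration on HEK293 cells expressing full-length human DLL4, detected with anti-human IgG-Fc-Cy5 plus 7AAD for 30 minutes at 4° C. by flow cytometry. KD estimated by nonlinear fit of mean fluorescence vs total mAb concentration, with receptor number, background and proportionality constant floating.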

human Dll1 [3] = target: T1, human Dll1; test: FACS, 15 µg/ml, 293T cells with human Dll1
How it was run: as §1

[4] = target: DLL4 extracellular domain (R&D systems, catalog #1506-D4/CF) (UniProt Q9NR61 27-529, limits assumed); test: cell-based or functional assay
DLL4 extracellular domain (R&D systems, catalog #1506-D4/CF), sequence (Q9NR61 27-529 limits assumed): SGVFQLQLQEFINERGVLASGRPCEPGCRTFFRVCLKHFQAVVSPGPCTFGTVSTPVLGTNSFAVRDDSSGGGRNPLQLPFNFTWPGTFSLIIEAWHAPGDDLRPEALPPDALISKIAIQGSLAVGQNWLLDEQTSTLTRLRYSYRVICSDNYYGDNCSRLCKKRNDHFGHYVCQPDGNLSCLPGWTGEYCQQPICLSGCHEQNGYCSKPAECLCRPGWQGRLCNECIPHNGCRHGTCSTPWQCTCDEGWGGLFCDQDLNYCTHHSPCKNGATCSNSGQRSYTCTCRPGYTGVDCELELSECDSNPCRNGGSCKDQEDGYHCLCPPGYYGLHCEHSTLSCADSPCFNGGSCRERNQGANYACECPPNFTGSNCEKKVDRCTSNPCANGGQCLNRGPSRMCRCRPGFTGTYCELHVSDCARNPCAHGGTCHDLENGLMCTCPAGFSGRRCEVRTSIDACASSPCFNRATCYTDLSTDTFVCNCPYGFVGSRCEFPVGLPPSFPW

human Jagged1 [5] = target: T4, human Jagged1 (human, UniProt P78504 34-1218); test: FMAT, hybridoma supernatant, 293T cells with human Jagged1
T4 construct: whole, on cells
T4 sequence (P78504 34-1218): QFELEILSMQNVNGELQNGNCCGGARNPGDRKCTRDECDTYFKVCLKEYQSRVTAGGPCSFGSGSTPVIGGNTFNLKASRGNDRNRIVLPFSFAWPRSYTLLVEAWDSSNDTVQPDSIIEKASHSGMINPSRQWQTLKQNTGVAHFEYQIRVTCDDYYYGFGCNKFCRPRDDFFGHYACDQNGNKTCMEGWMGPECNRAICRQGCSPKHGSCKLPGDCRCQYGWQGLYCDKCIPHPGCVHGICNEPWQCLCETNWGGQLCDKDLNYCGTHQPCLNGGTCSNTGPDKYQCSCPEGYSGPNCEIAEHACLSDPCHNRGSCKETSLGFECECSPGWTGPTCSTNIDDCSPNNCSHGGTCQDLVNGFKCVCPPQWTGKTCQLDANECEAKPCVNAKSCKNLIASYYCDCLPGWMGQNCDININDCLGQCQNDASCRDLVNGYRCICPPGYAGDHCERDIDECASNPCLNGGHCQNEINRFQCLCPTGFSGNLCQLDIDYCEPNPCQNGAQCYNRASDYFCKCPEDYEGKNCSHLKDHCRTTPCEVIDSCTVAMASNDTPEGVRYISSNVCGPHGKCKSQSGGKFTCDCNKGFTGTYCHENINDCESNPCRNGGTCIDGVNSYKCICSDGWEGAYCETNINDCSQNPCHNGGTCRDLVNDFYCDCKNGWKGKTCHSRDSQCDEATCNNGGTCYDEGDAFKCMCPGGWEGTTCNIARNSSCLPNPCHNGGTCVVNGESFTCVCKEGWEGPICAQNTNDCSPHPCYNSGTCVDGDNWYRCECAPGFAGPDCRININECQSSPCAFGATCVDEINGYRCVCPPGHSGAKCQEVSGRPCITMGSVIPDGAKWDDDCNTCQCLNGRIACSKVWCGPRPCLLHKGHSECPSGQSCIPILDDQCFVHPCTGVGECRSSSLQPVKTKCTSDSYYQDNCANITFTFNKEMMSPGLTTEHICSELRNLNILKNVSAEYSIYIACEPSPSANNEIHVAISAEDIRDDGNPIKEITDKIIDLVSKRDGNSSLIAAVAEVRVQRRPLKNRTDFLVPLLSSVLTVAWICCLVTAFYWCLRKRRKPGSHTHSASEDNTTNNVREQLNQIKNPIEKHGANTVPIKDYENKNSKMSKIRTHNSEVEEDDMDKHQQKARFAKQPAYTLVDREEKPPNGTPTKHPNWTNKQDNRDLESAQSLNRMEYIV
How it was run: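 Transfected 293T cells (3000 expressing plus 15000 mock-transfected per well), in PBS with 2% FBS, were mixed with hybridoma supernatant and Cy5 goat anti-human IgG Fc (750 ng/ml final). After 3 h at room temperature, binding was read by FMAT fluorescence. Notch1/Fc served as positive control for DLL4 and Notch3/Fc for Jagged1.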

human Jagged1 [6] = target: T4, human Jagged1; test: FACS, 5 µg/ml, 293T cells with human Jagged1 vs mock
How it was run: as §1

Dll1/mock ratio (human Dll1 [1]): 1.1 | Kd [2]: 0.981 nM | koff [2]: 4.02e-05 s⁻¹ | kon [2]: 40900 M⁻¹ s⁻¹ | Kd (full length human DLL4): 0.882 nM | Dll1/293T X Geo mean (human Dll1 [3]): 44.1 | % inhibition 1 µg/ml, AVERAGE (HUVEC proliferation on coated DLL4) [4]: 93% | % inhibition 1 µg/ml, N = 1 (HUVEC proliferation on coated DLL4) [4]: 98% | % inhibition 1 µg/ml, N = 2 (HUVEC proliferation on coated DLL4) [4]: 87% | % inhibition 10 µg/ml, AVERAGE (HUVEC proliferation on coated DLL4) [4]: 103% | % inhibition 10 µg/ml, N = 1 (HUVEC proliferation on coated DLL4) [4]: 110% | % inhibition 10 µg/ml, N = 2 (HUVEC proliferation on coated DLL4) [4]: 95% | Count (human Jagged1 [5]): 5 | FL1 (human Jagged1 [5]): 5030 | FL1 x count (human Jagged1 [5]): 25200 | Jagged1/mock ratio (human Jagged1 [6]): 1.26
B1: 2H10 (antibody, IgG4, V domains shown)
VH: QVQLVESGGGVVQPGRSLRLSCAASGFTFSRHGMHWVRQAPGKGLEWVAVVWFDGSNIYYADSVKGRFTISRDNSKNTLYLQMNSLRAEDTAMYYCARDSRIAAADYWGQGTLVTVSS
VL: SYELTQPPSVSVSPGQTVSITCSGDKLGDKYVCWYQQKPGQSPVLVIYQESKRPSGIPERFSGSSSGNTATLTISGTQAMDEADYYCQTWDSSLVVFGGGTKLTVL
notes: Fully human; used for IgG4 rows and where no isotype is printed; also called 2H10 IgG4

Dll1/mock ratio (human Dll1 [1]): 1.23 | Kd [2]: 0.283 nM | koff [2]: 3.33e-05 s⁻¹ | kon [2]: 118000 M⁻¹ s⁻¹ | Kd (full length human DLL4): 0.516 nM | Dll1/293T X Geo mean (human Dll1 [3]): 25.9 | % inhibition 1 µg/ml, AVERAGE (HUVEC proliferation on coated DLL4) [4]: 93% | % inhibition 1 µg/ml, N = 1 (HUVEC proliferation on coated DLL4) [4]: 101% | % inhibition 1 µg/ml, N = 2 (HUVEC proliferation on coated DLL4) [4]: 84% | % inhibition 10 µg/ml, AVERAGE (HUVEC proliferation on coated DLL4) [4]: 97% | % inhibition 10 µg/ml, N = 1 (HUVEC proliferation on coated DLL4) [4]: 102% | % inhibition 10 µg/ml, N = 2 (HUVEC proliferation on coated DLL4) [4]: 92% | Count (human Jagged1 [5]): 2 | FL1 (human Jagged1 [5]): 2590 | FL1 x count (human Jagged1 [5]): 5180 | Jagged1/mock ratio (human Jagged1 [6]): 1.09
B2: 4B4 (antibody, IgG4, V domains shown)
VH: QVLLIQSGAEVKKPGASVQVSCKASGYTFTNYGVIWVRQAPGQGLEYMGWISAYNGNTNYAQKLQDRVTMTSDTSTTTAYMELRSLRSDDTAVYYCARELGSSFDYWGQGTLVTVSS
VL: SYELTQPPSVSVSPGQTARITCSGDALPKKYAYWYQQKSGQAPVLVIYEDIKRPSGIPERFSGSSSGTMATLTISGAQVEDEADYYCFSTDNSGDHSVFGGGTKLTVL
notes: Fully human; used for IgG4 rows and where no isotype is printed; also called 4B4 IgG4; 4B4.1

Dll1/mock ratio (human Dll1 [1]): 1.23 | Kd [2]: 0.132 nM | koff [2]: 1.36e-05 s⁻¹ | kon [2]: 103000 M⁻¹ s⁻¹ | Kd (full length human DLL4): 0.999 nM | Dll1/293T X Geo mean (human Dll1 [3]): 32.3 | % inhibition 1 µg/ml, AVERAGE (HUVEC proliferation on coated DLL4) [4]: 62% | % inhibition 1 µg/ml, N = 1 (HUVEC proliferation on coated DLL4) [4]: 52% | % inhibition 1 µg/ml, N = 2 (HUVEC proliferation on coated DLL4) [4]: 71% | % inhibition 10 µg/ml, AVERAGE (HUVEC proliferation on coated DLL4) [4]: 77% | % inhibition 10 µg/ml, N = 1 (HUVEC proliferation on coated DLL4) [4]: 72% | % inhibition 10 µg/ml, N = 2 (HUVEC proliferation on coated DLL4) [4]: 82% | Count (human Jagged1 [5]): 0 | FL1 (human Jagged1 [5]): 0 | FL1 x count (human Jagged1 [5]): 0 | Jagged1/mock ratio (human Jagged1 [6]): 1.07
B3: 9G8 (antibody, IgG4, V domains shown)
VH: QLQLQESGPGLVKPSETLSLSCTVSGGSISSSSSYWGLIRQPPGKGLEWIGSIYYSGSTYYSPSLKSRVSISVDTSKNQFSLKLSSVTAADTAVYFCARQGYGGHPDVFDIWGQGTMVTVSS
VL: SSELTQSPSVSVSPGQTARITCSGDKLGDVYVCWYQQKTGQSPVLVIYEDTKRPSGIPERFSGSNSGNTATLTISGTQVMDEADYYCQAWDSTTAVIFGGGTKLTVL
notes: Fully human; used for IgG4 rows and where no isotype is printed; also called 9G8 IgG4

Dll1/mock ratio (human Dll1 [1]): 1.16 | Kd [2]: 0.481 nM | koff [2]: 0.000152 s⁻¹ | kon [2]: 317000 M⁻¹ s⁻¹ | Kd (full length human DLL4): 0.359 nM | Dll1/293T X Geo mean (human Dll1 [3]): 32.4 | % inhibition 1 µg/ml, AVERAGE (HUVEC proliferation on coated DLL4) [4]: 93% | % inhibition 1 µg/ml, N = 1 (HUVEC proliferation on coated DLL4) [4]: 86% | % inhibition 1 µg/ml, N = 2 (HUVEC proliferation on coated DLL4) [4]: 99% | % inhibition 10 µg/ml, AVERAGE (HUVEC proliferation on coated DLL4) [4]: 89% | % inhibition 10 µg/ml, N = 1 (HUVEC proliferation on coated DLL4) [4]: 88% | % inhibition 10 µg/ml, N = 2 (HUVEC proliferation on coated DLL4) [4]: 89% | Count (human Jagged1 [5]): 0 | FL1 (human Jagged1 [5]): 0 | FL1 x count (human Jagged1 [5]): 0 | Jagged1/mock ratio (human Jagged1 [6]): 1.12
B4: 21H3 (antibody, IgG4, V domains shown)
VH: QVQLVQSGAEVKKPGASVKVSCKASGYTFTNYGITWVRQAPGQGPEWMGWISAYNGNTNYAQKLQDRVTVTTDTSTSTAYMELRSLRSDDTAVYYCARDRVPRIPVTTEAFDIWGQGTMVTVSS
VL: QSVLTQPPSASGTPGQRVTISCSGSSSNIGSYFVYWYQQLPGTAPKLLIYRNNQRPSGVPDRFSGSESGTSASLAISGLRSEDEADYYCAAWDDSLSGHWVFGGGTRLTVL
notes: Fully human; used for IgG4 rows and where no isotype is printed; also called 21H3 IgG4

— patent US20100196385A1 (AstraZeneca / MedImmune, published 2010)
